Patent US20190367592A1 (AC IMMUNE, published 2019)

Columns and labels:
[1] = target: T1, recombinant human Tau monomer, 2N4R isoform (amino acids 2-441) (human, UniProt P10636-8 2-441); experiment: SPR, mIgG2a captured, Tau monomer analyte, 1:1 fit
T1 construct: range 2-441; N-terminal His-tag removed with TEV protease; also called monomeric Tau
Source text: Antibody heavy and light chains were constructed via gene synthesis and subcloning of the resulting DNA into murine IgG2a (heavy chain) and murine kappa (light chain) mammalian expression vectors. Antibodies were expressed in CHO or 293T cells by transient co-transfection of the heavy chain and light chain plasmids and were purified with affinity resin MabSelectSure (GE Healthcare Life Sciences). Purified recombinant antibodies were screened for binding to Tau monomer protein on a Biacore T200 surface plasmon resonance instrument using a mouse IgG capture kit and a Series S CM5 chip. Antibodies in mIgG2a format diluted in 10 mM HEPES pH7.4, 150 mM NaCl, 0.05% Tween 20 (running buffer, HBSP) were captured for 30 or 45 seconds at a concentration of 1 μg/ml (antibodies 26C1, 94B2-C1, 52F6-F11.v1, 52F6-F11.v2, 11E10-B8, 55E7-F11, 125B1-H3, 123E9-A1, 30G1-B2, 66F5-A1, 89F4-A1, 93A8-D2 and 126F11-G11) or for 70 or 150 seconds at a concentration of 0.1 μg/ml (antibodies 19H6-F7, 3A4-H4, 54C1-H11 and 37D3-H9) using a flow rate of 10 μl/min. […] Association and dissociation times were monitored for 180-480 seconds and for 300-600 seconds respectively. Antibody 37D3-H9 was selected for further analysis due to the high affinity (Table 6) and the absence of NXS/T glycosylation motifs in the CDRs.

[2] = target: T1, recombinant human Tau monomer, 2N4R …; experiment: SPR, captured IgG, Tau monomer analyte, 1:1 model; fit-quality column: Yes
Description: (§1) Briefly, IgGs in 1 mL culuture were captured using tip columns that were custom packed with 20 μL MabSelect SuRe resin (Glygen Corp & GE Healthcare). After washing with 1×PBS pH 7.4, IgGs were eluted into 160 μL of 50 mM phosphoric acid pH 3 and neutralized with 12 μL of 20×PBS pH 11. MabSelect SuRe tip columns were stripped in 0.1 M NaOH and regenerated with 1×PBS pH 7.4 for consecutive use of up to 15 times. Purified antibodies in 96-well format were normalized to 0.1 mg/ml using a Hamilton Star liquid handling robot. The “pre-stress” samples were kept at approximately 4° C. and the “post-stress” samples were incubated at 40° C. for two weeks in a PCR machine. Functional stability of the variants was compared by running surface plasmon resonance kinetics experiments with the “pre-stress” and “post-stress” antibody preps. The antibodies were assessed using a human antibody capture CM5 Series S chip generated using the GE Biacore human IgG capture kit and a Biacore T200 instrument. Antibodies diluted to 2 μg/ml were immobilized using a 15 second injection time and 10 μl/min flow rate. Binding to Tau monomer at 0 nM, 26.5 nM and 265 nM, at 25° C., using a flow rate of 40 μl/min, was monitored for a 180 second association phase followed by a 300 second dissociation phase. Samples were run in 10 mM HEPES pH7.4, 150 mM NaCl, 0.05% Tween 20 (HBSP) using a multi-cycle kinetics format. Data was analyzed using BIAevaluation software, fitting a 1:1 binding model. The resulting affinity (KD) values are shown in FIG. 8A-D. A Stability Index was also calculated, using the rationale that affinity-compromised antibodies (due for example to deamidation of key residues) are expected to contribute equally to the IgG capture level (“Ligand Level”) but to contribute less to the measured Tau binding, and that this would be reflected in the experimentally derived value for Rmax. To account for variations in the amount of each antibody captured, Rmax was normalized for the antibody capture level (as measured by “Ligand Level”, Response Units immobilized during antibody capture). Thus Normalized Rmax is calculated as the experimental Rmax (units=RU) divided by the “Ligand Level” (Evaluation output representing the RU captured during the hIgG capture step, units=RU), and Stability Index is calculated here as Normalized Rmax (post-stress) divided by Normalized Rmax (pre-stress).

[3] = target: T1, recombinant human Tau monomer, 2N4R …; experiment: SPR; Normalized Rmax post-stress (2 weeks 40 C) / pre-stress
Description: as §1

T1 sequence (P10636 other isoform, or with tags, fused parts or gaps limits assumed): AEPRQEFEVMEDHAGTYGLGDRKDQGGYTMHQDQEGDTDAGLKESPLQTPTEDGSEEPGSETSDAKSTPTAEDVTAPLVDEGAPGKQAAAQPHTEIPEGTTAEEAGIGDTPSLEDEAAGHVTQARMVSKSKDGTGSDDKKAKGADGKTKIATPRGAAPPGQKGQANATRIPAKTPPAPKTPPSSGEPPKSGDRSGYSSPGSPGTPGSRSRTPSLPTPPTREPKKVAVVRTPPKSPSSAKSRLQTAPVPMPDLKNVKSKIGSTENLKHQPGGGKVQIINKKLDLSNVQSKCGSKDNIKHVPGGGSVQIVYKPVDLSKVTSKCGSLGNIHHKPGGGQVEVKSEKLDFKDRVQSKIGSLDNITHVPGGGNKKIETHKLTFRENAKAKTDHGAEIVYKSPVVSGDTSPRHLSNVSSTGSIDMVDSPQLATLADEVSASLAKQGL

Kd [1]	koff [1]	kon [1]	Kd [2]	Stability Index [3]	Binder
108 nM	0.02 s⁻¹	200000 M⁻¹ s⁻¹	–	–	11E10-B8 (antibody, mouse IgG2a, V domains shown) VH: EVQLVESGGDLVKPGGSLKLSCAASGFTFRSYGMSWVRQTPDKRLEWVATISGGGSYTYYPDSVKGRFTISRDNAKNTLYLQMSSLKSEDTAMYYCAVSYDGAMDYWGQGTSVTVSS VL: DVLMTQTPLSLPVSLGDQASISCRSSQSIVHSNGNTYLEWYLQKPGQSPKLLIYKVSNRFSGVPDRFSGSGSGTDFTLKISRVEAEDLGLYYCFQGSHVPWTFGGGTKLEIK
–	–	–	16.1 nM	84%	hu37D3-H9.v30.10 (antibody, V domains shown) VH: EVQLVESGGGLVQPGGSLRLSCAASGLIFRSYGMSWVRQAPGKGLEWVATINSGGTYTYYPDSVKGRFTISRDNSKNTLYLQMNSLRAEDTAVYYCANSYSGAMDYWGQGTLVTVSS VL: DDVLTQTPLSLPVTPGQPASISCRSSQSIVHSKGNTYFEWYLQKPGQSPQLLIYKVSNRFSGVPDRFSGSGSGTDFTLKISRVEAEDVGVYYCFQGSLVPWTFGQGTKVEIK
–	–	–	4.7 nM	95%	hu37D3.v28.A24 (antibody, V domains shown) VH: EVQLVESGGGLVQPGGSLRLSCAASGLIFRSYGMSWVRQAPGKGLEWVATINSGGTYTYYPDSVKGRFTISRDNSKNTLYLQMNSLRAEDTAVYYCANSYSGAMDYWGQGTLVTVSS VL: DVVMTQTPLSLPVTPGQPASISCRSSQSIVHSNGNTYFEWYLQKPGQSPQLLIYKVSNRFSGVPDRFSGSGSGTDFTLKISRVEAEDVGVYYCFQGSLVPWTFGQGTKVEIK
–	–	–	3.9 nM	89%	hu37D3.v28.A16 (antibody, V domains shown) VH: EVQLVESGGGLVQPGGSLRLSCAASGLIFRSYGMSWVRQAPGKGLEWVATINSGGTYTYYPDSVKGRFTISRDNSKNTLYLQMNSLRAEDTAVYYCANSYSGAMDYWGQGTLVTVSS VL: DVVLTQTPLSLPVTPGQPASISCRSSQSIVHSNGNTYFEWYLQKPGQSPQLLIYKVSNRFSGVPDRFSGSGSGTDFTLKISRVEAEDVGVYYCFQGSLVPWTFGQGTKVEIK
–	–	–	1.8 nM	57%	hu37D3.v28.A8 (antibody, V domains shown) VH: EVQLVESGGGLVQPGGSLRLSCAASGLIFRSYGMSWVRQAPGKGLEWVATINSGGTYTYYPDSVKGRFTISRDNSKNTLYLQMNSLRAEDTAVYYCANSYSGAMDYWGQGTLVTVSS VL: DDVMTQTPLSLPVTPGQPASISCRSSQSIVHSNGNTYFEWYLQKPGQSPQLLIYKVSNRFSGVPDRFSGSGSGTDFTLKISRVEAEDVGVYYCFQGSLVPWTFGQGTKVEIK

More lines, now with the values behind:

Binder	Kd [1]	koff [1]	kon [1]	Kd [2]	Stability Index [3]
26C1 (antibody, mouse IgG2a, V domains shown, recombinant murine IgG2a/kappa; label without subclone) VH: EVHLQQSGAELVRSGASVKLSCTASGFNIKDYYMYWVKQRPEQGLEWIGWIDPENGDTEYFPKFQGKATMTADTSSKTAYLQLSSLTSEDTAVYYCNAWRARATNSALDYWGQGTSVTVSS VL: not shown	17 nM	0.0007 s⁻¹	40000 M⁻¹ s⁻¹	–	–
30G1-B2 (antibody, mouse IgG2a, V domains shown) VH: QVQLQQSGAELVRPGASVTLSCKASGYTFTDYEMYWVKQTPVHGLEWIGAIDPETGDTAYNQKFKGKATLTADKSSNTAYMELRSLTSEDSAVYYCIRQYGNWFPYWGQGTLVTVSA VL: DVVMTQTPLSLPVSLGDQASISCRSSQSLVHANGNTYLHWFLQKPGLSPKLLIYKVSNRFSGVPDRFSGGGSGTDFTLKITRLEAEDLGVYFCSQSTHVPFTFGSGTKLEIK	20 nM	0.008 s⁻¹	400000 M⁻¹ s⁻¹	–	–
hu37D3.v28.A14 (antibody, V domains shown) VH: EVQLVESGGGLVQPGGSLRLSCAASGLIFRSYGMSWVRQAPGKGLEWVATINSGGTYTYYPDSVKGRFTISRDNSKNTLYLQMNSLRAEDTAVYYCANSYSGAMDYWGQGTLVTVSS VL: DDVMTQTPLSLPVTPGQPASISCRSSQSIVHSNGNTYLEWYLQKPGQSPQLLIYKVSNRFSGVPDRFSGSGSGTDFTLKISRVEAEDVGVYYCFQGSHVPWTFGQGTKVEIK	–	–	–	51.4 nM	70%
hu37D3.v28.A10 (antibody, V domains shown) VH: EVQLVESGGGLVQPGGSLRLSCAASGLIFRSYGMSWVRQAPGKGLEWVATINSGGTYTYYPDSVKGRFTISRDNSKNTLYLQMNSLRAEDTAVYYCANSYSGAMDYWGQGTLVTVSS VL: DDVMTQTPLSLPVTPGQPASISCRSSQSIVHSNGNTYFEWYLQKPGQSPQLLIYKVSNRFSGVPDRFSGSGSGTDFTLKISRVEAEDVGVYYCFQGSHVPWTFGQGTKVEIK	–	–	–	41.8 nM	37%
hu37D3.v28.A18 (antibody, V domains shown) VH: EVQLVESGGGLVQPGGSLRLSCAASGLIFRSYGMSWVRQAPGKGLEWVATINSGGTYTYYPDSVKGRFTISRDNSKNTLYLQMNSLRAEDTAVYYCANSYSGAMDYWGQGTLVTVSS VL: DVVLTQTPLSLPVTPGQPASISCRSSQSIVHSNGNTYFEWYLQKPGQSPQLLIYKVSNRFSGVPDRFSGSGSGTDFTLKISRVEAEDVGVYYCFQGSHVPWTFGQGTKVEIK	–	–	–	17.3 nM	83%
hu37D3.v28.A28 (antibody, V domains shown) VH: EVQLVESGGGLVQPGGSLRLSCAASGLIFRSYGMSWVRQAPGKGLEWVATINSGGTYTYYPDSVKGRFTISRDNSKNTLYLQMNSLRAEDTAVYYCANSYSGAMDYWGQGTLVTVSS VL: DVVMTQTPLSLPVTPGQPASISCRSSQSIVHSNGNTYLEWYLQKPGQSPQLLIYKVSNRFSGVPDRFSGSGSGTDFTLKISRVEAEDVGVYYCFQGSLVPWTFGQGTKVEIK	–	–	–	11.4 nM	89%
hu37D3.v28.A20 (antibody, V domains shown) VH: EVQLVESGGGLVQPGGSLRLSCAASGLIFRSYGMSWVRQAPGKGLEWVATINSGGTYTYYPDSVKGRFTISRDNSKNTLYLQMNSLRAEDTAVYYCANSYSGAMDYWGQGTLVTVSS VL: DVVLTQTPLSLPVTPGQPASISCRSSQSIVHSNGNTYLEWYLQKPGQSPQLLIYKVSNRFSGVPDRFSGSGSGTDFTLKISRVEAEDVGVYYCFQGSLVPWTFGQGTKVEIK	–	–	–	7.1 nM	93%
hu37D3.v28.A22 (antibody, V domains shown) VH: EVQLVESGGGLVQPGGSLRLSCAASGLIFRSYGMSWVRQAPGKGLEWVATINSGGTYTYYPDSVKGRFTISRDNSKNTLYLQMNSLRAEDTAVYYCANSYSGAMDYWGQGTLVTVSS VL: DVVLTQTPLSLPVTPGQPASISCRSSQSIVHSNGNTYLEWYLQKPGQSPQLLIYKVSNRFSGVPDRFSGSGSGTDFTLKISRVEAEDVGVYYCFQGSHVPWTFGQGTKVEIK	–	–	–	27.8 nM	70%
hu37D3.v28.A26 (antibody, V domains shown) VH: EVQLVESGGGLVQPGGSLRLSCAASGLIFRSYGMSWVRQAPGKGLEWVATINSGGTYTYYPDSVKGRFTISRDNSKNTLYLQMNSLRAEDTAVYYCANSYSGAMDYWGQGTLVTVSS VL: DVVMTQTPLSLPVTPGQPASISCRSSQSIVHSNGNTYFEWYLQKPGQSPQLLIYKVSNRFSGVPDRFSGSGSGTDFTLKISRVEAEDVGVYYCFQGSHVPWTFGQGTKVEIK	–	–	–	22.5 nM	78%
hu37D3-H9.v30.11 (antibody, V domains shown) VH: EVQLVESGGGLVQPGGSLRLSCAASGLIFRSYGMSWVRQAPGKGLEWVATINSGGTYTYYPDSVKGRFTISRDNSKNTLYLQMNSLRAEDTAVYYCANSYSGAMDYWGQGTLVTVSS VL: DDVLTQTPLSLPVTPGQPASISCRSSQSIVHSRGNTYFEWYLQKPGQSPQLLIYKVSNRFSGVPDRFSGSGSGTDFTLKISRVEAEDVGVYYCFQGSLVPWTFGQGTKVEIK	–	–	–	20.9 nM	86%
